Target: ThaI restriction endonuclease (Thermoplasma acidophilum strain ATCC 25905)
Experiment: SEC

Substance: ThaI restriction endonuclease (enzyme)
- stoichiometry N: 2
